Measured values taken from paper PMC7108782, “Direct interaction of metastasis-inducing S100P protein with tubulin causes enhanced cell migration without changes in cell adhesion” (Biochemical Journal, 2020).
Where two headings read alike, the source gives them in different places.

Columns and labels:
α,β-tubulin = test: SPR binding of S100P to immobilised α,β-tubulin; parameters: species or system human; settings: for Kd: mean ± SE, 3 experiments
Description: The coding sequences for full length (human) α-tubulin and for N-terminal and C-terminal halves of α or β-tubulin were generated using PCR with specific primers shown in Supplementary Table S1 and sub-cloned into pET16(b) for expressing and purifying His-tagged full-length α-tubulin and His-tagged tubulin fragments in E. coli, as described previously. β-tubulin was purchased from Abcam.
For SPR binding assays, α,β-tubulin proteins described earlier were immobilised on a carboxymethylated dextran surface of a CM5 chip using BS^3 for use in Biocore X100. Recombinant S100P produced as described previously was used as a ligand in different concentrations at 20, 50, 100, 200, 1000, 2000 nM for calculation of the equilibrium dissociation constant (Kd) from the association/dissociation rate constants and from the extent of binding near equilibrium (Supplementary Table S2), as described previously. To detect the effects of tubulin peptides on the interaction of tubulin, different concentrations of tagged and untagged peptides were mixed with 1 µM S100P first and the mixtures were then applied to the tubulin-coated chip. The relative changes in kinetics and binding extents with different peptides were calculated using software provided by the manufacturer.

Rama 37-T25 cells = test: S100P-enhanced cell migration, Rama 37-T25; format: cell-based, rat; settings: Rama 37-T25, doxycycline 1 µg/ml, 24 h
Description: Cell migration rate (%) = M/G × 100.

α, β-tubulins = test: Pulldown assay, His-S100P beads with COS-7 cell lysates; format: binding, monkey; settings: 1 mM CaCl2 vs EGTA
Method: […] After brief sonication, the lysates were centrifuged at 15,000g for 30 min to remove insoluble components. The supernatants were then applied to His-S100P columns or control column with His-binding beads only. After extensive washings with 10 mM Tris–HCl, pH 7.4, 150 mM NaCl, 0.5% (v/v) Tween 20, the bound proteins were eluted with 300 mM imidazole and then subjected to Western blotting using mouse anti-S100P mAb and anti-tubulin antibodies (R&D Systems, Abingdon, U.K.).

tubulin = test: Co-immunoprecipitation, COS-7 S10 lysates; format: binding, monkey; settings: S100P-induced COS-7 S10 lysates, 0.5 mM CaCl2
Method: For co-immunoprecipitations, S100P-inducible COS-7 cells were incubated with 1 µg/ml doxycycline for 16 h and lysed in RIPA buffer (Thermo Fisher Scientific, Loughborough, U.K.) with 0.5 mM CaCl2. After sonication and centrifugation as described above, control antibody (rabbit IgG from Sigma), anti-tubulin or anti-S100P were added to three separate tubes containing 0.7 ml each of cell lysate and incubated overnight at 4°C. Then 100 µl Dynabeads® ProteinG (Thermo Fisher Scientific) were added to each tube and the contents incubated for 4 h at 4°C. After extensive washings with washing buffer (10 mM Tris–HCl, pH 7.4, 150 mM NaCl, 1% (v/v) Triton X-100, 0.2 mM sodium orthovanadate), the bound proteins were eluted with 0.1 M glycine pH 2.5 and then subjected to Western blotting using the paired antibodies together with a sample of the input and the last wash.

COS-7 S10 cells = test: Immunofluorescence of MTOC and EB3 bundles; format: cell-based, monkey; settings: COS-7 S10, S100P induced
Method: Immunofluorescent staining was carried out as previously described. COS-7 S10 and MCF-7 cells were induced for 48 h prior to plating at 25,000 cells/well onto either untreated or fibronectin-coated (2.5 µg/cm^2) glass coverslips in a 24-well plate. After a further 48 h, cells were washed once in Cytoskeleton Buffer (CB: 150 mM NaCl, 5 mM MgC1_2, 5 mM EGTA, 5 mM glucose, 10 mM 2-(N-morpholino) ethanesulfonic acid, pH 6.1) prior to fixing with 3.7% (w/v) paraformaldehyde in CB at 37°C for 20 min. Cells were permeabilised with 1% (v/v) Triton X-100 in CB for 2 min and blocked with 5% (v/v) goat serum in CB for 60 min before incubation with rabbit anti-EB3 (Abcam ab157217) and mouse anti-α-tubulin (Sigma T5168) (dilution between 1/400 and 1/500) in 1% (v/v) goat serum in CB for 60 min at room temperature. […] Quantification of the presence of EB3 clusters at the cell periphery or well-defined MTOC was performed by counting the number per cell in about 100 cells selected at random. […] For MTOC quantification, cells and MTOC were graded as shown in Figure 4C′ where organisation is defined as (1) not visible or poorly structured organisation; (2) visible but poorly formed; (3) visible and defined; and (4) well defined and extensive regions. […]

[1] = test system: nonmuscle myosin (NM) isoforms; settings: ref [10]; cited from earlier work
Description: Overexpression of S100P promotes breast cancer metastasis in animals and elevated levels in primary breast cancers are associated with poor patient outcomes.

calcium concentration above which complex starts to form (α,β-tubulin; 0.15 M NaCl, 2 µM S100P): above 30 µM | calcium concentration saturating the reaction (α,β-tubulin; 0.15 M NaCl, 2 µM S100P): 0.2 mM | Kd (α,β-tubulin; Kd from association/dissociation rate constants, 150mM NaCl, 0.5mM CaCl2, single cycle, S100P 20-2000 nM, CM5 chip, read-out: Kinetic dissociation constant Kd): 0.12 ± 0.012 µM | Kd (α,β-tubulin; Kd from rate constants, 150mM NaCl, 0.5mM CaCl2, multiple cycles, read-out: Kinetic dissociation constant Kd): 0.21 ± 0.09 µM | Kinetic dissociation constant Kd (α,β-tubulin; Kd from rate constants, 150M NaCl (so in the source), EDTA 5mM, multiple cycles, 1L = incalculably large): 1 L | Kd (α,β-tubulin; Kd from rate constants, 300M NaCl (so in the source), 0.5mM CaCl2, multiple cycles, read-out: Kinetic dissociation constant Kd): 0.89 ± 0.09 µM | Kd (α,β-tubulin; Kd from rate constants, 500M NaCl (so in the source), 0.5mM CaCl2, multiple cycles, read-out: Kinetic dissociation constant Kd): 8.3 ± 0.7 µM | calcium concentration at saturation of binding (α,β-tubulin; SPR, Figure 2F-H): 200 µM | Equilibrium dissociation constant Kd (α,β-tubulin; at or near equilibrium, 150M NaCl (so in the source), EDTA 5mM, multiple cycles, 1L = incalculably large): 1 L | Kd (α,β-tubulin; at or near equilibrium, 300M NaCl (so in the source), 0.5mM CaCl2, multiple cycles, read-out: Equilibrium dissociation constant Kd): 1.1 ± 0.16 µM
B1: S100P: recombinant or doxycycline-induced overexpressed S100P protein (protein)
chain: MTELETAMGMIIDVFSRYSGSEGSTQTLTKGELKVLMEKELPGFLQSGKDKDAVDKLLKDLDANGDAQVDFSEFIVFVAAITSACHKYFEKAGLK
S100P-enhanced cell migration (Rama 37-T25 cells): 3–4 folds | α, β-tubulins captured by His-S100P (α, β-tubulins): detected in eluates, but only when 1 mM CaCl2 but not EGTA was originally present | complex with tubulin in immunoprecipitates (tubulin): immunoprecipitates produced with anti-S100P also contained tubulin | reduction in percentage of cells with EB3 bundles at periphery (COS-7 S10 cells): 52% | reduction in percentage of well-defined MTOCs per cell (COS-7 S10 cells): 31% | order of interaction with NM isoforms [1]: IIA > IIC > IIB
